According to the PETadex activity labels (doi:10.1016/j.enzmictec.2020.109715):

Legend:
pNP-C8 [1] = experiment: Proxy for plastic degradation [Relative activity]
PET = experiment: Proxy for plastic degradation [Released monomer concentration (HPLC/LC-MS) (MHET+TPA+BHET)]; conditions: pH 8
BHET = conditions: pH 7; 40 °C; part of the chain shown
p-NP-C2 = conditions: pH 7; 40 °C; part of the chain shown
p-NP-C4 = conditions: pH 7; 40 °C; part of the chain shown
pNP-C8 [2] = experiment: Proxy for plastic degradation [p-nitrophenol (pNP) release] (% relative activity)

B1: unnamed (protein)
chain: MNFPRASRLMQAAVLGGLMAVSAAATAQTNPYARGPNPTAASLEASAGPFTVRSFTVSRPSGYGAGTVYYPTNAGGTVGAIAIVPGYTARQSSIKWWGPRLASHGFVVITIDTNSTLDQPSSRSSQQMAALRQVASLNGTSSSPIYGKVDTARMGVMGWSMGGGGSLISAANNPSLKAAAPQAPWDSSTNFSSVTVPTLIFACENDSIAPVNSSALPIYDSMSRNAKQFLEINGGSHSCANSGNSNQALIGKKGVAWMKRFMDNDTRYSTFACENPNSTRVSDFRTANCSLEHHHHHH
Proxy for plastic degradation (pNP-C8 [1]; 5 °C): 100% | Proxy for plastic degradation (pNP-C8 [1]; 30 °C): 80% | Proxy for plastic degradation (pNP-C8 [1]; 35 °C): 100% | Proxy for plastic degradation (pNP-C8 [1]; pH 3): 10% | Proxy for plastic degradation (pNP-C8 [1]; pH 4): 20% | Proxy for plastic degradation (pNP-C8 [1]; pH 5): 65% | Proxy for plastic degradation (pNP-C8 [1]; pH 6): 95% | Proxy for plastic degradation (pNP-C8 [1]; pH 7): 98% | Proxy for plastic degradation (pNP-C8 [1]; pH 8): 100% | Proxy for plastic degradation (pNP-C8 [1]; pH 9): 95% | Proxy for plastic degradation (pNP-C8 [1]; pH 10): 70% | Proxy for plastic degradation (PET; 30 °C): 1.8 mM | Proxy for plastic degradation (PET; 40 °C): 2.2 mM | Proxy for plastic degradation (PET; 50 °C): 0.8 mM | Proxy for plastic degradation (PET; 60 °C): 0.4 mM | Proxy for plastic degradation (PET; 70 °C): 0.2 mM | Proxy for plastic degradation (PET; 80 °C): 0.1 mM

B2: unnamed (protein)
chain: QSNPYQRGPNPTRSALTTDGPFSVATYSVSRLSVSGFGGGVIYYPTGTTLTFGGIAMSPGYTADASSLAWLGRRLASHGFVVIVINTNSRLDFPDSRASQLSAALNYLRTSSPSAVRARLDANRLAVAGHSMGGGATLRISEQIPTLKAGVPLTPWHTDKTFNTPVPQLIVGAEADTVAPVSQHAIPFYQNLPSTTPKVYVELDNATHFAPNSPNAAISVYTISWMKLWVDNDTRYRQFLCNVNDPALSDFRSNNRHCQ
Km (BHET): 16800 µM | kcat (BHET): 7.3 s⁻¹ | kcat/Km (BHET): 435 M⁻¹ s⁻¹ | Km (p-NP-C2): 1150 µM | kcat (p-NP-C2): 131 s⁻¹ | kcat/Km (p-NP-C2): 114000 M⁻¹ s⁻¹ | Km (p-NP-C4): 300 µM | kcat (p-NP-C4): 53.9 s⁻¹ | kcat/Km (p-NP-C4): 180000 M⁻¹ s⁻¹

B3: unnamed (protein)
chain: MNFPRASRLMQAAVLGGLMAVSAAATAQTNPYARGPNPTAASLEASAGPFTVRSFTVSRPSGYGAGTVYYPTNAGGTVGAIAIVPGYTARQSSIKWWGPRLASHGFVVITIDTNSTLDQPSSRSSQQMAALRQVASLNGTSSSPIYGKVDTARMGVMGWSMGGGGSLISAANNPSLKAAAPQAPWDSSTNFSSVTVPTLIFACENDSIAPVNSSALPIYDSMSRNAKQFLEINGGSHSCANSGNSNQALIGKKGVAWMKRFMDNDTRYSTFACENPNSTRVSDFRTANCS
Proxy for plastic degradation (pNP-C8 [2]; pH 3, part of the chain shown): 10 | Proxy for plastic degradation (pNP-C8 [2]; pH 4, part of the chain shown): 17 | Proxy for plastic degradation (pNP-C8 [2]; pH 5, part of the chain shown): 62 | Proxy for plastic degradation (pNP-C8 [2]; pH 6, part of the chain shown): 94 | Proxy for plastic degradation (pNP-C8 [2]; pH 7, part of the chain shown): 98 | Proxy for plastic degradation (pNP-C8 [2]; pH 8, 5 °C, part of the chain shown): 100 | Proxy for plastic degradation (pNP-C8 [2]; pH 8, 30 °C, part of the chain shown): 80 | Proxy for plastic degradation (pNP-C8 [2]; pH 8, 35 °C, part of the chain shown): 100 | Proxy for plastic degradation (pNP-C8 [2]; pH 8, part of the chain shown): 100 | Proxy for plastic degradation (pNP-C8 [2]; pH 9, part of the chain shown): 96 | Proxy for plastic degradation (pNP-C8 [2]; pH 10, part of the chain shown): 69

B4: unnamed (protein)
chain: SNPYQRGPNPTRSALTADGPFSVATYTVSRLSVSGFGGGVIYYPTGTSLTFGGIAMSPGYTADASSLAWLGRRLASHGFVVLVINTNSRFDYPDSRASQLSAALNYLRTSSPSAVRARLDANRLAVAGHSMGGGGTLRIAEQNPSLKAAVPLTPWHTDKTFNTSVPVLIVGAEADTVAPVSQHAIPFYQNLPSTTPKVYVELDNASHFAPNSNNAAISVYTISWMKLWVDNDTRYRQFLCNVNDPALSDFRTNNRHCQ
Proxy for plastic degradation (pNP-C8 [1]; 5 °C, part of the chain shown): 100% | Proxy for plastic degradation (pNP-C8 [1]; 30 °C, part of the chain shown): 35% | Proxy for plastic degradation (pNP-C8 [1]; 35 °C, part of the chain shown): 48% | Proxy for plastic degradation (pNP-C8 [1]; pH 3, part of the chain shown): 0% | Proxy for plastic degradation (pNP-C8 [1]; pH 4, part of the chain shown): 20% | Proxy for plastic degradation (pNP-C8 [1]; pH 5, part of the chain shown): 70% | Proxy for plastic degradation (pNP-C8 [1]; pH 6, part of the chain shown): 100% | Proxy for plastic degradation (pNP-C8 [1]; pH 7, part of the chain shown): 100% | Proxy for plastic degradation (pNP-C8 [1]; pH 8, part of the chain shown): 90% | Proxy for plastic degradation (pNP-C8 [1]; pH 9, part of the chain shown): 55% | Proxy for plastic degradation (pNP-C8 [1]; pH 10, part of the chain shown): 0% | Proxy for plastic degradation (PET; 30 °C, part of the chain shown): 0 mM | Proxy for plastic degradation (PET; 40 °C, part of the chain shown): 0.4 mM | Proxy for plastic degradation (PET; 50 °C, part of the chain shown): 1.5 mM | Proxy for plastic degradation (PET; 60 °C, part of the chain shown): 3.8 mM | Proxy for plastic degradation (PET; 70 °C, part of the chain shown): 5.8 mM | Proxy for plastic degradation (PET; 80 °C, part of the chain shown): 4 mM

B5: unnamed (protein)
chain: MQVVLGRVRSAGLLAALLALAAWALVWASPSAEAQSNPYQRGPNPTRSALTTDGPFSVATYSVSRLSVSGFGGGVIYYPTGTTLTFGGIAMSPGYTADASSLAWLGRRLASHGFVVIVINTNSRLDFPDSRASQLSAALNYLRTSSPSAVRARLDANRLAVAGHSMGGGATLRISEQIPTLKAGVPLTPWHTDKTFNTPVPQLIVGAEADTVAPVSQHAIPFYQNLPSTTPKVYVELDNATHFAPNSPNAAISVYTISWMKLWVDNDTRYRQFLCNVNDPALSDFRSNNRHCQ
Proxy for plastic degradation (pNP-C8 [1]; 5 °C): 100% | Proxy for plastic degradation (pNP-C8 [1]; 30 °C): 20% | Proxy for plastic degradation (pNP-C8 [1]; 35 °C): 30% | Proxy for plastic degradation (pNP-C8 [1]; pH 3): 0% | Proxy for plastic degradation (pNP-C8 [1]; pH 4): 20% | Proxy for plastic degradation (pNP-C8 [1]; pH 5): 70% | Proxy for plastic degradation (pNP-C8 [1]; pH 6): 95% | Proxy for plastic degradation (pNP-C8 [1]; pH 7): 100% | Proxy for plastic degradation (pNP-C8 [1]; pH 8): 100% | Proxy for plastic degradation (pNP-C8 [1]; pH 9): 90% | Proxy for plastic degradation (pNP-C8 [1]; pH 10): 15% | Proxy for plastic degradation (pNP-C8 [2]; pH 3): 0 | Proxy for plastic degradation (pNP-C8 [2]; pH 4): 17 | Proxy for plastic degradation (pNP-C8 [2]; pH 5): 69 | Proxy for plastic degradation (pNP-C8 [2]; pH 6): 94 | Proxy for plastic degradation (pNP-C8 [2]; pH 7): 100 | Proxy for plastic degradation (pNP-C8 [2]; pH 8): 100 | Proxy for plastic degradation (pNP-C8 [2]; pH 8, 5 °C): 100 | Proxy for plastic degradation (pNP-C8 [2]; pH 8, 30 °C): 21 | Proxy for plastic degradation (pNP-C8 [2]; pH 8, 35 °C): 30 | Proxy for plastic degradation (pNP-C8 [2]; pH 9): 88 | Proxy for plastic degradation (pNP-C8 [2]; pH 10): 11 | Proxy for plastic degradation (PET; 30 °C): 0 mM | Proxy for plastic degradation (PET; 40 °C): 0.2 mM | Proxy for plastic degradation (PET; 50 °C): 1.1 mM | Proxy for plastic degradation (PET; 60 °C): 3.8 mM | Proxy for plastic degradation (PET; 70 °C): 6.2 mM | Proxy for plastic degradation (PET; 80 °C): 4.9 mM

B6: unnamed (protein)
chain: MDGVLWRVRTAALMAALLALAAWALVWASPSVEAQSNPYQRGPNPTRSALTADGPFSVATYTVSRLSVSGFGGGVIYYPTGTSLTFGGIAMSPGYTADASSLAWLGRRLASHGFVVLVINTNSRFDYPDSRASQLSAALNYLRTSSPSAVRARLDANRLAVAGHSMGGGGTLRIAEQNPSLKAAVPLTPWHTDKTFNTSVPVLIVGAEADTVAPVSQHAIPFYQNLPSTTPKVYVELDNASHFAPNSNNAAISVYTISWMKLWVDNDTRYRQFLCNVNDPALSDFRTNNRHCQ
Proxy for plastic degradation (pNP-C8 [2]; pH 3): 0 | Proxy for plastic degradation (pNP-C8 [2]; pH 4): 17 | Proxy for plastic degradation (pNP-C8 [2]; pH 5): 69 | Proxy for plastic degradation (pNP-C8 [2]; pH 6): 100 | Proxy for plastic degradation (pNP-C8 [2]; pH 7): 100 | Proxy for plastic degradation (pNP-C8 [2]; pH 8): 89 | Proxy for plastic degradation (pNP-C8 [2]; pH 8, 5 °C): 100 | Proxy for plastic degradation (pNP-C8 [2]; pH 8, 30 °C): 32 | Proxy for plastic degradation (pNP-C8 [2]; pH 8, 35 °C): 47 | Proxy for plastic degradation (pNP-C8 [2]; pH 9): 54 | Proxy for plastic degradation (pNP-C8 [2]; pH 10): 0
